Here are results for 8 molecules from patent publication US20080057055A1, “OLD-35 as an inflammatory agent” (priority 2004, published 2008).

The subject of one data set is IL-8. The data set can be described thus: Human IL-8 ELISA in culture supernatants. The note with it: HeLa, Ad.hPNPase 50 pfu/cell; plus 20 mM NAC. In kind it is cell-based. The text has this: (§1) Human IL-6 and IL-8 ELISA. The levels of IL-6 and IL-8 were quantified by ELISA in culture supernatants using human IL-6 ELISA kit (Pierce Biotechnology, Rockford, Ill.) and human IL-8 ELISA kit (Pierce), respectively, according to the manufacturer's protocol.
(In general: In an ELISA, binding on a coated surface is turned into a signal by an enzyme label.)

A further data set has as its system IκBα, p65. In words: Western blot of cytoplasmic and nuclear extracts. The note with it: 20 mM NAC, 2 days post-infection. Type of data set: cell-based, human. As for the experimental part:
Cell Fractionation. Cells were harvested and the cytoplasm and nucleus were fractionated by the modified Schreiber's method as described (31). Briefly, the cells were washed with PBS and lysed for 10 min in Buffer A (10 mM HEPES pH 7.9, 10 mM KCl, 1.5 mM MgCl2, 1 mM EDTA, 1 mM dithiothreitol, 0.1% Nonidet P-40) containing protease inhibitor cocktail (Roche, Mannheim, Germany). After centrifugation, the supernatant was saved as the cytoplasmic fraction and the pellet containing nuclei was lysed in Buffer B (20 mM HEPES pH 7.9, 400 mM KCl, 20% glycerol, 1 mM EDTA, 1 mM DTT) containing protease inhibitor cocktail (Roche) with one freeze-thaw cycle. After centrifugation the supernatant was collected as the nuclear fraction. Protein concentration was determined by Bio-Rad protein assay kit (Bio-Rad laboratories, Hercules, Calif.).
Preparation of Whole Cell Lysates and Western Blot Analysis. Whole cell lysates were prepared and Western blotting was performed as described (4). Briefly, cells were harvested in RIPA buffer containing protease inhibitor cocktail (Roche, Mannheim, Germany), 1 mM Na3VO4 and 50 mM NaF and centrifuged at 12,000 rpm for 10 min at 4° C. The supernatant was used as total cell lysate. Thirty μg of total cell lysate were used for SDS-PAGE and transferred to a nitrocellulose membrane. […]
In general terms: A western blot detects proteins with antibodies after separation by electrophoresis.

The next data set deals with IL-6. The data set can be described thus: Human IL-6 ELISA in culture supernatants. Type of data set: cell-based. The note with it: HeLa, Ad.hPNPase 50 pfu/cell; plus 20 mM NAC.
Source text: as §1

A further data set relates to HeLa cells. In words: Monitoring ROS production by flow cytometry (HE and DCFH-DA staining). Type of data set: cell-based, human. The following applies: Ad.hPNPase 50 pfu/cell, plus 20 mM NAC. The procedure:
Cell Lines, Reagents and Virus Infection protocol. The human cervical carcinoma cell line HeLa was cultured in Dulbecco's Modified Eagle Medium (DMEM) supplemented with 10% fetal calf serum, penicillin (50 units/ml) and streptomycin (50 μg/ml) at 37° C. in 5% CO2 and 100% relative humidity. N-acetyl-L-cysteine and Tiron were obtained from Sigma (St. Louis, Mo.). The recombinant replication-incompetent adenovirus expressing old-35 (Ad.hPNPase) was created in two steps as described previously and plaque purified by standard procedures (1, 28). Cells were infected with a multiplicity of infection (m.o.i.) of 1 to 50 plaque forming units (pfu)/cell of Ad.vec (control replication-incompetent adenovirus) or Ad.hPNPase as described (29).
Monitoring ROS Production. Cells were stained with 2.5 μM hydroethidine (HE) and 5 μM 5,6-carboxy-2′,7′-dichlorofluorescein diacetate (DCFH-DA) in PBS for 30 min in the dark (32). Immediately after staining the cells were analyzed by flow cytometry (FACScan; Becton Dickinson, Mountain View, Calif.) and data were analyzed using CellQuest software, version 3.1 (Becton Dickinson). The cells were gated to exclude cell debris.
(In flow cytometry, cells or beads pass a laser one at a time.)

A further data set relates to c-myc mRNA. In words: In vitro mRNA degradation assay with in vitro translated proteins. In kind it is biochemical, human. The note with it: in vitro translated protein incubated with HO-1 total RNA for 0.5 and 2 h. As for the experimental part:
In vitro Translation and in vitro mRNA Degradation Assays: In vitro translation was performed using the TNT coupled Reticulocyte Lysate Systems (Promega) using the plasmids pcDNA3.1+(Hygro) as a control, GADD153 expression plasmid, phPNPase^old-35, pΔRPH1, pΔRPH2, pΔRPH1+2 and pΔC-term according to the manufacturer's protocol. Five […] of total RNA from HO-1 cells were incubated with 5 μl of each in vitro translated protein at 37° C. from 0.5 to 2 h. The RNA was repurified using the Qiagen RNeasy mini kit (Qiagen) and Northern blotting was performed.

Data set [1] deals with the molecule itself. In words: self-association inferred from anti-HA Western blot of fractionated HO-1 cells.
A further data set addresses NF-κB p65 subunit (RelA) (human, UniProt Q04206 1-551). The data set can be described thus: complex composition inferred from EMSA supershift.

Chain of NF-κB p65 subunit (RelA) (Q04206 whole entry): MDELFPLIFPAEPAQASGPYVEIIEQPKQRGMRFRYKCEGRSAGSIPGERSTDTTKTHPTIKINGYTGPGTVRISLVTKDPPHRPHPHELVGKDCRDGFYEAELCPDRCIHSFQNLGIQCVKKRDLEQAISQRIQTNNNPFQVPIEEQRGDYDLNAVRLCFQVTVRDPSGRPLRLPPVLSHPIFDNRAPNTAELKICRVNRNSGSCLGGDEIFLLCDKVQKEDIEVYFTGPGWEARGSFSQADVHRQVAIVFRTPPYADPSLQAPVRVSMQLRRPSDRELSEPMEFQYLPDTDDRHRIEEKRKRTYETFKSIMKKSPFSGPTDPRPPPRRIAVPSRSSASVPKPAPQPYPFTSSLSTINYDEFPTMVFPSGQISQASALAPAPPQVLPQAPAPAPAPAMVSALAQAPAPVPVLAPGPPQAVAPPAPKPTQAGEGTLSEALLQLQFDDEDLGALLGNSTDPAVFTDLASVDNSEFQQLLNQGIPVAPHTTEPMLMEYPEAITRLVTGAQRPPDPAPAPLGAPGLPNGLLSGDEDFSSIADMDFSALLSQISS

As to `CC(=O)N[C@@H](CS)C(=O)O` [NAC, N-acetyl-L-cysteine], the “secreted IL-8 in culture supernatant” value in the data set with IL-8 is “markedly inhibited”. Moreover, the “degradation of IκBα and nuclear translocation of p65 by Ad.hPNPase^old-35 infection” value with IκBα, p65 was “inhibited”. Besides, in the data set with IL-6, the “secreted IL-6 in culture supernatant” value is “markedly inhibited”. For the same molecule, the figures for the “percentage of high ROS containing cells” value in the data set on HeLa cells (24 hr) and in the data set on HeLa cells (36 hr) were roughly 2% and roughly 3%, respectively.

B1: phPNPase^old-35: plasmid expressing full-length HA-tagged hPNPase^OLD-35 protein, in vitro translated for RNA degradation assays (protein, UniProt Q8TCS8 1-783, looked up)
chain: MAACRYCCSCLRLRPLSDGPFLLPRRDRALTQLQVRALWSSAGSRAVAVDLGNRKLEISSGKLARFADGSAVVQSGDTAVMVTAVSKTKPSPSQFMPLVVDYRQKAAAAGRIPTNYLRREIGTSDKEILTSRIIDRSIRPLFPAGYFYDTQVLCNLLAVDGVNEPDVLAINGASVALSLSDIPWNGPVGAVRIGIIDGEYVVNPTRKEMSSSTLNLVVAGAPKSQIVMLEASAENILQQDFCHAIKVGVKYTQQIIQGIQQLVKETGVTKRTPQKLFTPSPEIVKYTHKLAMERLYAVFTDYEHDKVSRDEAVNKIRLDTEEQLKEKFPEADPYEIIESFNVVAKEVFRSIVLNEYKRCDGRDLTSLRNVSCEVDMFKTLHGSALFQRGQTQVLCTVTFDSLESGIKSDQVITAINGIKDKNFMLHYEFPPYATNEIGKVTGLNRRELGHGALAEKALYPVIPRDFPFTIRVTSEVLESNGSSSMASACGGSLALMDSGVPISSAVAGVAIGLVTKTDPEKGEIEDYRLLTDILGIEDYNGDMDFKIAGTNKGITALQADIKLPGIPIKIVMEAIQQASVAKKEILQIMNKTISKPRASRKENGPVVETVQVPLSKRAKFVGPGGYNLKKLQAETGVTISQVDEETFSVFAPTPSAMHEARDFITEICKDDQEQQLEFGAVYTATITEIRDTGVMVKLYPNMTAVLLHNTQLDQRKIKHPTALGLEVGQEIQVKYFGRDPADGRMRLSRKVLQSPATTVVRTLNDRSSIVMGEPISQSSSNSQ
modifications: full-length HA tag
notes: plasmid expressing full-length HA-tagged hPNPase^OLD-35 protein, in vitro translated for RNA degradation assays
Consider B1, for which, in the data set with c-myc mRNA, the “degradation of c-myc mRNA” value is on record as “significant degradation”.

B2: pGADD153: unrelated plasmid that expresses a transcription factor (protein, UniProt P35638 1-169, looked up)
DNA damage-inducible …: MAAESLPFSFGTLSSWELEAWYEDLQEVLSSDENGGTYVSPPGNEEEESKIFTTLDPASLAWLTEEEPEPAEVTSTSQSPHSPDSSQSSLAQEEEEEDQGRTRKRKQSGHSPARAGKQRMKEKEQENERKVAQLAEENERLKQEIERLTREVEATRRALIDRMVNLHQA
modifications: expressed from plasmid
notes: unrelated plasmid that expresses a transcription factor
Consider B2, for which the “degradation of c-myc mRNA” value in the data set with c-myc mRNA is recorded as “No degradation”.

B3: ΔRPH2 deletion mutant of hPNPase^OLD-35 (a.a. 1-202 and 496-783) with C-terminal HA tag (enzyme)
chain: MAACRYCCSCLRLRPLSDGPFLLPRRDRALTQLQVRALWSSAGSRAVAVDLGNRKLEISSGKLARFADGSAVVQSGDTAVMVTAVSKTKPSPSQFMPLVVDYRQKAAAAGRIPTNYLRREVGTSDKEILTSRIIDRSIRPLFPAGYFYDTQVLCNLLAVDGVNEPDVLAINGASVALSLSDIPWNGPVGAVRIGIIDGEYVVMDSGVPISSAVAGVAIGLVTKTDPEKGEIEDYRLLTDILGIEDYNGDMDFKIAGTNKGITALQADIKLPGIPIKIVMEAIQQASVAKKEILQIMNKTISKPRASRKENGPVVETVQVPLSKRAKFVGPGGYNLKKLQAETGVTISQVDEETFSVFAPTPSVMHEARDFITEICKDDQEQQLEFGAVYTATITEIRDTGVMVKLYPNMTAVLLHNTQLDQRKIKHPTALGLEVGQEIQVKYFGRDPADGRMRLSRKVLQSPATTVVRTLNDRSSIVMGEPISQSSSNSQYPYDVPDYA
notes: The two fragments were joined at an HpaI site; also called Ad.ΔRPH2; pΔRPH2
Regarding B3, the binding result in data set [1] is “no binding”. For the same molecule, in the data set with c-myc mRNA, the “degradation of c-myc mRNA” value is “significant degradation”.

B4: ΔRPH1 deletion mutant of hPNPase^OLD-35 (a.a. 183-783) with C-terminal HA tag (enzyme)
chain: PWNGPVGAVRIGIIDGEYVVNPTRKEMSSSTLNLVVAGAPKSQIVMLEASAENILQQDFCHAIKVGVKYTQQIIQGIQQLVKETGVTKRTPQKLFTPSPEIVKYTHKLAMERLYAVFTDYEHDKVSRDEAVNKIRLDTEEQLKEKFPEADPYEIIESFNVVAKEVFRSIVLNEYKRCDGRDLTSLRNVSCEVDMFKTLHGSALFQRGQTQVLCTVTFDSLESGIKSDQVITAINGIKDKNFMLHYEFPPYATNEIGKVTGLNRRELGHGALAEKALYPVIPRDFPFTIRVTSEVLESNGSSSMASACGGSLALMDSGVPISSAVAGVAIGLVTKTDPEKGEIEDYRLLTDILGIEDYNGDMDFKIAGTNKGITALQADIKLPGIPIKIVMEAIQQASVAKKEILQIMNKTISKPRASRKENGPVVETVQVPLSKRAKFVGPGGYNLKKLQAETGVTISQVDEETFSVFAPTPSVMHEARDFITEICKDDQEQQLEFGAVYTATITEIRDTGVMVKLYPNMTAVLLHNTQLDQRKIKHPTALGLEVGQEIQVKYFGRDPADGRMRLSRKVLQSPATTVVRTLNDRSSIVMGEPISQSSSNSQYPYDVPDYA
notes: also called Ad.ΔRPH1; pΔRPH1
Consider B4, for which the binding result in data set [1] was “no binding”. In addition, in the data set with c-myc mRNA, the “degradation of c-myc mRNA” value is listed as “significant degradation”.

B5: ΔC-term deletion mutant of hPNPase^OLD-35 (a.a. 1-507) with C-terminal HA tag (enzyme)
chain: MAACRYCCSCLRLRPLSDGPFLLPRRDRALTQLQVRALWSSAGSRAVAVDLGNRKLEISSGKLARFADGSAVVQSGDTAVMVTAVSKTKPSPSQFMPLVVDYRQKAAAAGRIPTNYLRREVGTSDKEILTSRIIDRSIRPLFPAGYFYDTQVLCNLLAVDGVNEPDVLAINGASVALSLSDIPWNGPVGAVRIGIIDGEYVVNPTRKEMSSSTLNLVVAGAPKSQIVMLEASAENILQQDFCHAIKVGVKYTQQIIQGIQQLVKETGVTKRTPQKLFTPSPEIVKYTHKLAMERLYAVFTDYEHDKVSRDEAVNKIRLDTEEQLKEKFPEADPYEIIESFNVVAKEVFRSIVLNEYKRCDGRDLTSLRNVSCEVDMFKTLHGSALFQRGQTQVLCTVTFDSLESGIKSDQVITAINGIKDKNFMLHYEFPPYATNEIGKVTGLNRRELGHGALAEKALYPVIPRDFPFTIRVTSEVLESNGSSSMASACGGSLALMDSGVPISSAVAYPYDVPDYA
notes: also called Ad.ΔC-term; pΔC-term
Turning to B5, in data set [1], the binding result is given as “no binding”. The “degradation of c-myc mRNA” value in the data set on c-myc mRNA is “significant degradation”.

B6: pΔRPH1+2: plasmid for ΔRPH1+2 deletion mutant, in vitro translated protein of 31 kDa (protein)
chain: MDSGVPISSAVAGVAIGLVTKTDPEKGEIEDYRLLTDILGIEDYNGDMDFKIAGTNKGITALQADIKLPGIPIKIVMEAIQQASVAKKEILQIMNKTISKPRASRKENGPVVETVQVPLSKRAKFVGPGGYNLKKLQAETGVTISQVDEETFSVFAPTPSVMHEARDFITEICKDDQEQQLEFGAVYTATITEIRDTGVMVKLYPNMTAVLLHNTQLDQRKIKHPTALGLEVGQEIQVKYFGRDPADGRMRLSRKVLQSPATTVVRTLNDRSSIVMGEPISQSSSNSQYPYDVPDYA
On to B6, for which the “degradation of c-myc mRNA” value with c-myc mRNA was “No degradation”.

B7: NF-κB p50 subunit (other, human, UniProt P19838 1-433, looked up)
chain: MAEDDPYLGRPEQMFHLDPSLTHTIFNPEVFQPQMALPTDGPYLQILEQPKQRGFRFRYVCEGPSHGGLPGASSEKNKKSYPQVKICNYVGPAKVIVQLVTNGKNIHLHAHSLVGKHCEDGICTVTAGPKDMVVGFANLGILHVTKKKVFETLEARMTEACIRGYNPGLLVHPDLAYLQAEGGGDRQLGDREKELIRQAALQQTKEMDLSVVRLMFTAFLPDSTGSFTRRLEPVVSDAIYDSKAPNASNLKIVRMDRTAGCVTGGEEIYLLCDKVQKDDIQIRFYEEEENGGVWEGFGDFSPTDVHRQFAIVFKTPKYKDINITKPASVFVQLRRKSDLETSEPKPFLYYPEIKDKEEVQRKRQKLMPNFSDSFGGGSGAGAGGGGMFGSGGGGGGTGSTGPGYSFPHYGFPTYGGITFHPGTTKSNAGMKHG
notes: also called NF-κB1 (p50/p105)
As to B7, the binding result with NF-κB p65 subunit (RelA) is given as “binds”.
